B1: TPR t1 (parent)
chain: GACCAAUCUGCCCUCAGAGCUCGAGAACAUCUUCGGAUGCAGAGGAGGCAGGCUUCGGUGGCGCGAUAGCGCCAACGUCCUCAACCUCCAAUGCAUCCCACCACAUGAUGAUGCCUGAAGAGCCUUGGUUUUUUG

The variants in the data set derive from B1. Put plainly: polymerase ribozyme fitness, log enrichment relative to wild type (log ratio); higher = more active; in vitro selection for triplet polymerase activity. In short, it runs like this: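 Mutant libraries of both subunits of a heterodimeric triplet polymerase ribozyme were PCR-built, transcribed, and selected once in triplicate, with frozen incubation at −7 °C and capture of gel-excised extended constructs on streptavidin beads before RT-PCR. Illumina sequencing of input and output libraries was filtered to genotypes with ≥10 input reads and ≥1 read per output. Fitness is the logarithm of genotype enrichment over wild-type enrichment, using inverse-variance-weighted replicate averages. The logarithm is base 2.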
For the variant A46U G69U, the “polymerase ribozyme fitness (log ratio)” value is -0.372.

Turning to G47A C85G G113A U132A, the “polymerase ribozyme fitness (log ratio)” value is -2.45.

For the variant G47A C104A, the “polymerase ribozyme fitness (log ratio)” value was -2.7.

For the variant G47C A111U, the “polymerase ribozyme fitness (log ratio)” value was -4.54.

Take G47U U81A G122U C123U U130C U131A: the “polymerase ribozyme fitness (log ratio)” value is -2.99.

Regarding G47U G110U, the “polymerase ribozyme fitness (log ratio)” value is -3.1.

As for G47U G110A, the “polymerase ribozyme fitness (log ratio)” value was -2.29.

Take G47C U55G G71U U106A U129A G135C: the “polymerase ribozyme fitness (log ratio)” value was -2.24.

In the case of G47U G63U C85A, the “polymerase ribozyme fitness (log ratio)” value is -3.29.

G48U G69A G135U: the “polymerase ribozyme fitness (log ratio)” value is -5.98.

G47U A95C G128C: the “polymerase ribozyme fitness (log ratio)” value was -4.33.

For the variant G47C C86U A105U A121C, the “polymerase ribozyme fitness (log ratio)” value was -1.01.

For A46U G52U G71U C123A, the “polymerase ribozyme fitness (log ratio)” value was -2.41.

Consider A46U C99U, for which the “polymerase ribozyme fitness (log ratio)” value is -4.49.

For the variant G47U C72U U78C G113C, the “polymerase ribozyme fitness (log ratio)” value was -3.65.

As to G48U C49G G63U, the “polymerase ribozyme fitness (log ratio)” value is -1.73.

G47C U112G C115U U130A: the “polymerase ribozyme fitness (log ratio)” value was -5.2.

In the case of A46U A91G C123G, the “polymerase ribozyme fitness (log ratio)” value is -1.65.

Regarding G48A U54A A84U U129A, the “polymerase ribozyme fitness (log ratio)” value was -1.42.

Consider A46U C49U, for which the “polymerase ribozyme fitness (log ratio)” value was -1.49.

A46U A74U A91G: the “polymerase ribozyme fitness (log ratio)” value is -3.52.

In the case of G47A C114A C123G U125A, the “polymerase ribozyme fitness (log ratio)” value was -2.46.

As for C49A C56A G63A A75U A83C G113U C123G G127A, the “polymerase ribozyme fitness (log ratio)” value is -5.69.

Consider G48A C89A, for which the “polymerase ribozyme fitness (log ratio)” value is -1.71.

With G48A G77A C88U, the “polymerase ribozyme fitness (log ratio)” value was -0.845.

Consider G47U G71A U87A, for which the “polymerase ribozyme fitness (log ratio)” value was -4.27.

With G47U U96A, the “polymerase ribozyme fitness (log ratio)” value was -2.1.

As to G47A C49A C124U, the “polymerase ribozyme fitness (log ratio)” value is 0.655.

Consider G48U C56G C80G, for which the “polymerase ribozyme fitness (log ratio)” value was -3.4.

Turning to G48U C62U A84C C115A, the “polymerase ribozyme fitness (log ratio)” value was -1.79.

In the case of G47A C49A U132A, the “polymerase ribozyme fitness (log ratio)” value was -1.53.

For the variant G47A G69U C86A C97U C115U C124G U125C, the “polymerase ribozyme fitness (log ratio)” value was -0.107.

For the variant A46U G117A U133G, the “polymerase ribozyme fitness (log ratio)” value is -2.73.

For A46U C56A, the “polymerase ribozyme fitness (log ratio)” value is -1.15.

Take G48A C123G: the “polymerase ribozyme fitness (log ratio)” value turned out to be 0.439.

Turning to G47U C70U C82G G120U C124G G127A, the “polymerase ribozyme fitness (log ratio)” value was -0.105.

Consider A46U C82U, for which the “polymerase ribozyme fitness (log ratio)” value is -1.14.

With G48U U109C, the “polymerase ribozyme fitness (log ratio)” value is -4.94.

For the variant C49A A91C C97G C99U G113A, the “polymerase ribozyme fitness (log ratio)” value was -7.59.

G48U C56G C64U C101A: the “polymerase ribozyme fitness (log ratio)” value was -2.95.

For the variant G47A A91C G117U U133G, the “polymerase ribozyme fitness (log ratio)” value was -4.6.

G48A C49G C56U: the “polymerase ribozyme fitness (log ratio)” value was -0.3.

In the case of G48U G120U, the “polymerase ribozyme fitness (log ratio)” value was -0.428.

In the case of A46U C89U A111U, the “polymerase ribozyme fitness (log ratio)” value is -5.27.

With G47C C123G, the “polymerase ribozyme fitness (log ratio)” value is -1.31.

For G47C C56G C72G C82U C97U U112A, the “polymerase ribozyme fitness (log ratio)” value was -2.21.

Regarding G47A G60A C124G U133A, the “polymerase ribozyme fitness (log ratio)” value came out at 1.3.

G47U G57A: the “polymerase ribozyme fitness (log ratio)” value is -1.73.

As for G47U A100C U106A C124G, the “polymerase ribozyme fitness (log ratio)” value was 0.694.

Consider C49A A83C, for which the “polymerase ribozyme fitness (log ratio)” value is -1.24.

G47A A50G C115A: the “polymerase ribozyme fitness (log ratio)” value is -1.8.

In the case of G48U G57C U96A, the “polymerase ribozyme fitness (log ratio)” value was -1.49.

G47A G61A U116A U129A: the “polymerase ribozyme fitness (log ratio)” value is -4.01.

Turning to G47U G60U U112G, the “polymerase ribozyme fitness (log ratio)” value is -1.51.

On to G48A U132A, for which the “polymerase ribozyme fitness (log ratio)” value was -0.715.

For G48U C49U C72A C73A U131C, the “polymerase ribozyme fitness (log ratio)” value is -2.61.

For the variant G47A U133A, the “polymerase ribozyme fitness (log ratio)” value is -1.33.

Take G47A C53U A118U: the “polymerase ribozyme fitness (log ratio)” value is -0.687.

With C49A C64U C123U, the “polymerase ribozyme fitness (log ratio)” value was 0.702.

G48C G69U: the “polymerase ribozyme fitness (log ratio)” value is -0.209.

Regarding G48C C115A, the “polymerase ribozyme fitness (log ratio)” value is -1.84.

A46U C64U C99U: the “polymerase ribozyme fitness (log ratio)” value is -4.36.

For the variant G48A C56U C70A, the “polymerase ribozyme fitness (log ratio)” value is -4.74.

With G47A C79U, the “polymerase ribozyme fitness (log ratio)” value is -1.59.

With G47A C82G C123G U125A, the “polymerase ribozyme fitness (log ratio)” value is -1.38.

For G47A G60U C101A, the “polymerase ribozyme fitness (log ratio)” value was -0.894.

For the variant G48U A50G, the “polymerase ribozyme fitness (log ratio)” value is -1.02.

G48A C53A U59G G61C C79U C101A U126A: the “polymerase ribozyme fitness (log ratio)” value is -3.84.

As for A46G U59A, the “polymerase ribozyme fitness (log ratio)” value was -0.58.

Consider C49A A103C, for which the “polymerase ribozyme fitness (log ratio)” value was -5.44.

With G48U U59A U116C C124U, the “polymerase ribozyme fitness (log ratio)” value was -0.336.

For G48A G117U, the “polymerase ribozyme fitness (log ratio)” value was -2.2.

In the case of G47U C98U U112A, the “polymerase ribozyme fitness (log ratio)” value was -3.7.

Turning to C49A A91C G127A, the “polymerase ribozyme fitness (log ratio)” value was -3.35.

G48C C79A: the “polymerase ribozyme fitness (log ratio)” value was -3.15.

As to A46U G71U, the “polymerase ribozyme fitness (log ratio)” value is -1.16.

G48A G52U U55C U125A: the “polymerase ribozyme fitness (log ratio)” value was -2.1.

With G48U U96C U116A A121U, the “polymerase ribozyme fitness (log ratio)” value is -1.06.

As for G48U C49U G71C C86A, the “polymerase ribozyme fitness (log ratio)” value was -2.67.

For the variant G47U C115A, the “polymerase ribozyme fitness (log ratio)” value is -2.9.

In the case of G48C A83U A108G, the “polymerase ribozyme fitness (log ratio)” value is -1.66.

Take G48A U92A U106A: the “polymerase ribozyme fitness (log ratio)” value is -3.9.

Turning to G48A G58A U78C G110A, the “polymerase ribozyme fitness (log ratio)” value is -1.9.

As to G47A U78C C88A C97A U106A, the “polymerase ribozyme fitness (log ratio)” value was -5.69.

For the origin of these results see the RNAGym collection of RNA variant scans (doi:10.1073/pnas.2313332121).
